From patent publication US12365912 (UNIVERSITY OF FLORIDA RESEARCH FOUNDATION, dated 2025) come the findings set out here.

Sequences and labels used below:
B1: EYFP^C-CsACD2 (other)
chain: MAVNHLCQWQYLRFQLSHPSAPACRYLSPSRPKSSTSSTAKVNCSAAPSSSPMDSHNEGRKKFMEFPYASGPVRQLMVDLVSTVENTLDSQLLPCTLPPDVQYYENQNGTAQASLQIRSGLKSSLIDFILGSWVHSELPTGAALNITSLSAYLNSSTDAPNLLIELIQSSPTSLVLILDLPPRKDLVLHPDYLHTFYESTRLDEYRQMLEKVPEVRPYFSSSLYLRCVVSPSAIMVRVDTETETGAGESTRLDYIITNHVHPVAKQVIGIWLNQCACGGRHVGESDKAYLEKRDGLIKNKTIEIDLGSSFPRLFGPQVASRVLGEIQKVFTA
notes: not shown: C-terminal fragment of EYFP (pSAT6-cEYFP-C1-B) and its linker

For experiment [1], the target named is SDE15-EYFP^N ([…]_04025 without signal peptide fused to the N-terminal fragment of EYFP) (Ca. liberibacter asiaticus). Briefly: BiFC in citrus leaf protoplasts (FIG. 10B).
The experiment “EYFP^C-CsACD2” concerns the target B1. The experiment in a line: BiFC in citrus leaf protoplasts.
Experiment [2] deals with EYFP^C-SDE15 ([…]_04025 without signal peptide fused to the C-terminal fragment of EYFP) (Ca. liberibacter asiaticus). The experiment in a line: BiFC in citrus leaf protoplasts (FIG. 10B).

Consider B1, for which, in experiment [1], the binding result was “binds”.

B2: CsACD2-EYFP^N (other)
chain: MAVNHLCQWQYLRFQLSHPSAPACRYLSPSRPKSSTSSTAKVNCSAAPSSSPMDSHNEGRKKFMEFPYASGPVRQLMVDLVSTVENTLDSQLLPCTLPPDVQYYENQNGTAQASLQIRSGLKSSLIDFILGSWVHSELPTGAALNITSLSAYLNSSTDAPNLLIELIQSSPTSLVLILDLPPRKDLVLHPDYLHTFYESTRLDEYRQMLEKVPEVRPYFSSSLYLRCVVSPSAIMVRVDTETETGAGESTRLDYIITNHVHPVAKQVIGIWLNQCACGGRHVGESDKAYLEKRDGLIKNKTIEIDLGSSFPRLFGPQVASRVLGEIQKVFTA
notes: not shown: N-terminal fragment of EYFP (pSAT6-nEYFP-C1) and its linker
Consider B2, for which the binding result is “no binding” with EYFP^C-CsACD2 and “binds” in experiment [2].
